Columns and labels:
[1] = biological target: T1, human folate receptor beta on cells (human, UniProt P14207 17-230); assay: FACS cell binding (MFI) on 293T cells stably expressing hFOLR2 (293T-hFOLR2); parental 293T cells as negative control
T1 construct: whole, on cells; also called hFolRβ; FolRβ

[2] = biological target: T2, human folate receptor alpha on cells (human, UniProt P15328 25-234); assay: FACS cell binding (MFI) on 293T cells stably expressing hFOLR1 (293T-hFOLR1); parental 293T cells as negative control
T2 construct: also called hFolRα; FolRα
T2 sequence (P15328 25-234 limits assumed): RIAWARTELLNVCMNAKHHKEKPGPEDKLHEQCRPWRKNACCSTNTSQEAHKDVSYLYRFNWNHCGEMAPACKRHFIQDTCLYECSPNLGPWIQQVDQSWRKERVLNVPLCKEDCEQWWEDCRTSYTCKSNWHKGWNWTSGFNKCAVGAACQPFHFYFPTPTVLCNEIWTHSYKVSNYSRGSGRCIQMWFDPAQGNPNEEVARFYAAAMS

T1 sequence (P14207 17-230): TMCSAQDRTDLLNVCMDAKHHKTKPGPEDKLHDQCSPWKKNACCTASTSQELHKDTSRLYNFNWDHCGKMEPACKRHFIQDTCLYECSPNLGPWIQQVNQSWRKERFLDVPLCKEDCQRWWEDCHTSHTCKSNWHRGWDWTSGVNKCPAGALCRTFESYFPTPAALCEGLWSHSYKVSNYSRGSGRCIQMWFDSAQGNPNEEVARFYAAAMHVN

B1: antibody 1848-B10 (antibody, V domains shown)
VH: EVQLVESGGGLVQPGGSLRLSCAASGFNTTTKSIHWVRQAPGKGLEWVGEIYPRDGITDYADSVKGRFTISADTSKNTAYLQMNSLRAEDTAVYYCARGGWHWRSGYSYYLDYWGQGTLVTVSS
VL: not shown
notes: the light chain is that of trastuzumab; It was tested as an IgG; also called SRP1848-B10
binding result [1]: no binding | Kd [2]: 6.4 nM
